{"source": "paper PMC5916898", "about": "“Global profiling of protein–DNA and protein–nucleosome binding affinities using quantitative mass spectrometry”", "experiment_in_all_cases": "competition; 150 mM NaCl, 50 mM Tris pH 8, 0.25% NP-40, 1 mM TCEP; 4 C, 2 h; 100 ug HeLa nuclear lysate; free competitor against 200 nM immobilised SP/KLF wild-type", "settings_in_all_cases": "protein: extract", "key": {"[1]": {"molecular_target": "KLF16 (Homo sapiens, UniProt Q9BXK1)", "sequence (Q9BXK1 whole entry)": "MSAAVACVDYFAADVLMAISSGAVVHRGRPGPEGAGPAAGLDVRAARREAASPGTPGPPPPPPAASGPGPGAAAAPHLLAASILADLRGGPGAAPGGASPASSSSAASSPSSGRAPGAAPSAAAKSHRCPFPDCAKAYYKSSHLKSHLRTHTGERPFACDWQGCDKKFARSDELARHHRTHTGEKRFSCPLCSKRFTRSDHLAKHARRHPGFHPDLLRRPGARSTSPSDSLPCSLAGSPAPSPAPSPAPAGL"}, "[2]": {"molecular_target": "KLF3 (Homo sapiens, UniProt P57682)", "sequence (P57682 whole entry)": "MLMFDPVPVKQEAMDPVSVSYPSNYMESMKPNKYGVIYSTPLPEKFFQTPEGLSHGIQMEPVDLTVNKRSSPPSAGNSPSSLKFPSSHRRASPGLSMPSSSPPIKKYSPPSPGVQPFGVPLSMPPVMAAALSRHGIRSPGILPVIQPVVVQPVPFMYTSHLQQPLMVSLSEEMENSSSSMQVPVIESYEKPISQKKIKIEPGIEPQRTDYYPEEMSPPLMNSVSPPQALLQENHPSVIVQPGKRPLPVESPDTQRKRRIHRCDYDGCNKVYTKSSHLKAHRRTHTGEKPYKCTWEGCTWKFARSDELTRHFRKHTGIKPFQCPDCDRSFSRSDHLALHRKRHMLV"}, "[3]": {"molecular_target": "KLF13 (Homo sapiens, UniProt Q9Y2Y9)", "sequence (Q9Y2Y9 whole entry)": "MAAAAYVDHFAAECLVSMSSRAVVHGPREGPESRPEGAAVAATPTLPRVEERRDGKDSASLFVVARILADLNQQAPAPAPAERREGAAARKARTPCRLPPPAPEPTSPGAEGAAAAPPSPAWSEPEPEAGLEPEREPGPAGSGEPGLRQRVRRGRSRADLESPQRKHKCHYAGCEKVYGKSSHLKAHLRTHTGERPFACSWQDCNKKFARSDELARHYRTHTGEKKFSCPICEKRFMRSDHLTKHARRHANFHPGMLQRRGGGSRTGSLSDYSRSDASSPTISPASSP"}, "[4]": {"molecular_target": "T1, ZNF281 (Homo sapiens, UniProt Q9Y2X9)", "T1 sequence": "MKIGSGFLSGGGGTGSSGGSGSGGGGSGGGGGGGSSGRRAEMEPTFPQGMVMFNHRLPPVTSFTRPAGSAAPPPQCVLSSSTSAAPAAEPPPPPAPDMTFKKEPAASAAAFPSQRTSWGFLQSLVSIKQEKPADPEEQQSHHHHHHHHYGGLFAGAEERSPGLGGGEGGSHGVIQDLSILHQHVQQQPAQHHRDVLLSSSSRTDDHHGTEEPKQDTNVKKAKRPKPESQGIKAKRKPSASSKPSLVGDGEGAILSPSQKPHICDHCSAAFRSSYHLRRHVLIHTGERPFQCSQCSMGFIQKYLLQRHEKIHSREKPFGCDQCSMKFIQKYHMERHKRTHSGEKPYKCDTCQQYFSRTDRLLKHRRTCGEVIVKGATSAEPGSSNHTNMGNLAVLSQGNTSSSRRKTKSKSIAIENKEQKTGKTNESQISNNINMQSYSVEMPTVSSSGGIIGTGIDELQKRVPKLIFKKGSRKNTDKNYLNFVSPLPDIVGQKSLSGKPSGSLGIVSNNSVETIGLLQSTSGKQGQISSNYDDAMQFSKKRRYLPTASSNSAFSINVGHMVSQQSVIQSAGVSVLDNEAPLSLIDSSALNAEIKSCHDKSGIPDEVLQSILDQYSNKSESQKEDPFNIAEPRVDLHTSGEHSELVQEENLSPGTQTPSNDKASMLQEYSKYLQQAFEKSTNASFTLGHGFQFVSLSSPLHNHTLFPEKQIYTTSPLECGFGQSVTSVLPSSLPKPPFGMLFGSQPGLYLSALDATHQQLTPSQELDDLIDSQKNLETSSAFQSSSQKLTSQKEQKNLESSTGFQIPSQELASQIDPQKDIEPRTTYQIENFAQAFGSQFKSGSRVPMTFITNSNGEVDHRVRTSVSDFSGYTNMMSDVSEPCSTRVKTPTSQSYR"}, "[5]": {"molecular_target": "T2, VEZF1 (Homo sapiens, UniProt Q14119)", "T2 sequence": "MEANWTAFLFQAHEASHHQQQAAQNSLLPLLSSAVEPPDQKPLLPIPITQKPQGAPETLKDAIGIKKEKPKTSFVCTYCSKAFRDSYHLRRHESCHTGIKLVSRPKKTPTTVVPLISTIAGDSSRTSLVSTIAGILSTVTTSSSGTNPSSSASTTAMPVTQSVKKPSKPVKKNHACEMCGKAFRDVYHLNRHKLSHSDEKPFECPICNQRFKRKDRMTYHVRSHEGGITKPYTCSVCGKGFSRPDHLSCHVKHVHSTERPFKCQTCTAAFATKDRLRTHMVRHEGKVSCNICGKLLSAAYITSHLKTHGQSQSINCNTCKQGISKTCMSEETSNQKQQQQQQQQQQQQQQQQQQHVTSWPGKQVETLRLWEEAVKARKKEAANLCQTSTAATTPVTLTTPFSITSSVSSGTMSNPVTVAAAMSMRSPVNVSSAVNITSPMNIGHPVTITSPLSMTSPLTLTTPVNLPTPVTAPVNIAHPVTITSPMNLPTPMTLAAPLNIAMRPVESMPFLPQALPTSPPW"}, "[6]": {"molecular_target": "TFAP2A (Homo sapiens, UniProt P05549)", "sequence (P05549 whole entry)": "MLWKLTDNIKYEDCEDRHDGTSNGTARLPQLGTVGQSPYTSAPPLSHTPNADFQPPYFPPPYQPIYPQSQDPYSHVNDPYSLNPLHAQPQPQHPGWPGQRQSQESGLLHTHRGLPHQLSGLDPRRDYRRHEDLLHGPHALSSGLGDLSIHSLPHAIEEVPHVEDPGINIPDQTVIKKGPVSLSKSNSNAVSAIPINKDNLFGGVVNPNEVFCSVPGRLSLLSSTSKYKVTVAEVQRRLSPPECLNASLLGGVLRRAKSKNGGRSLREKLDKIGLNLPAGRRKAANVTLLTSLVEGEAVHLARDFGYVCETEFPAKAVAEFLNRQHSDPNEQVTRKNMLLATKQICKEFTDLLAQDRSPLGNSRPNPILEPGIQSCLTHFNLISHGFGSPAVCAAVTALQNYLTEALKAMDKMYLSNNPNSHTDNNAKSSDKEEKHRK"}, "[7]": {"molecular_target": "ZBTB7A (Homo sapiens, UniProt O95365)", "sequence (O95365 whole entry)": "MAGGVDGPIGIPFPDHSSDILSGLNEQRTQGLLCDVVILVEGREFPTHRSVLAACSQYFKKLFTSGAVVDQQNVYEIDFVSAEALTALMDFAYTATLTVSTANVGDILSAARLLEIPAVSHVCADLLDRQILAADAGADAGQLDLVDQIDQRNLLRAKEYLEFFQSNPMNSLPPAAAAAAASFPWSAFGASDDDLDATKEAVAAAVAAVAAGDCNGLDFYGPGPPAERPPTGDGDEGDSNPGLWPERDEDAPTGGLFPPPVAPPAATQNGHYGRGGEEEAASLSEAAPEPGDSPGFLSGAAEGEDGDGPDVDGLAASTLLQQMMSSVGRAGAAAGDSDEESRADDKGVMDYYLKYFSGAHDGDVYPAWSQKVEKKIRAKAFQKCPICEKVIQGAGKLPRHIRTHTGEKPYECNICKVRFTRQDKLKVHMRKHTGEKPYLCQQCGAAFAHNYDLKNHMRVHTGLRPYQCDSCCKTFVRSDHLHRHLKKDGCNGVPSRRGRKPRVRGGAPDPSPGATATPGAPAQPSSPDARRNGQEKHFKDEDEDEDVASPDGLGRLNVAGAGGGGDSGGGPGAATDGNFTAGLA"}, "[8]": {"molecular_target": "SP3 (Homo sapiens, UniProt Q02447)", "sequence (Q02447 whole entry)": "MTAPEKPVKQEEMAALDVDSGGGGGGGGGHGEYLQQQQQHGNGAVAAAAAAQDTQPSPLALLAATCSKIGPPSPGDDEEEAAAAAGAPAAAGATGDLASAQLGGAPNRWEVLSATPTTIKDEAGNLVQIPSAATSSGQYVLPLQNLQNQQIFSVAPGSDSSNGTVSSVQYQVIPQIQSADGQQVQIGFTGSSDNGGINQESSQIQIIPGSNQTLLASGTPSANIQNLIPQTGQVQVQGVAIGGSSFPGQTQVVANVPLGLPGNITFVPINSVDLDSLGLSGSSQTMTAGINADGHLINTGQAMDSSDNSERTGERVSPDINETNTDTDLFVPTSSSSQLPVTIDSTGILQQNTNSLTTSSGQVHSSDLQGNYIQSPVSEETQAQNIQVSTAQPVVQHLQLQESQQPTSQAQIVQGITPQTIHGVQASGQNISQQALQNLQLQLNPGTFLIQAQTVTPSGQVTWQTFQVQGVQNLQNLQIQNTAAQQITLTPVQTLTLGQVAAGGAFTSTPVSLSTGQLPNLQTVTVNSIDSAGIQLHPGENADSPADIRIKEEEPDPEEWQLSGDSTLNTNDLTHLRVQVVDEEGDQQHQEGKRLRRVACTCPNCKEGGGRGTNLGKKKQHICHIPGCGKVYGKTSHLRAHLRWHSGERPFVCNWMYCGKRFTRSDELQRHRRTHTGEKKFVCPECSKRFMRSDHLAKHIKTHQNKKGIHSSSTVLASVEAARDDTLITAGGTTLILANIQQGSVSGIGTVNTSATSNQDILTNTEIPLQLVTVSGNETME"}, "[9]": {"molecular_target": "SP1 (Homo sapiens, UniProt P08047)", "sequence (P08047 whole entry)": "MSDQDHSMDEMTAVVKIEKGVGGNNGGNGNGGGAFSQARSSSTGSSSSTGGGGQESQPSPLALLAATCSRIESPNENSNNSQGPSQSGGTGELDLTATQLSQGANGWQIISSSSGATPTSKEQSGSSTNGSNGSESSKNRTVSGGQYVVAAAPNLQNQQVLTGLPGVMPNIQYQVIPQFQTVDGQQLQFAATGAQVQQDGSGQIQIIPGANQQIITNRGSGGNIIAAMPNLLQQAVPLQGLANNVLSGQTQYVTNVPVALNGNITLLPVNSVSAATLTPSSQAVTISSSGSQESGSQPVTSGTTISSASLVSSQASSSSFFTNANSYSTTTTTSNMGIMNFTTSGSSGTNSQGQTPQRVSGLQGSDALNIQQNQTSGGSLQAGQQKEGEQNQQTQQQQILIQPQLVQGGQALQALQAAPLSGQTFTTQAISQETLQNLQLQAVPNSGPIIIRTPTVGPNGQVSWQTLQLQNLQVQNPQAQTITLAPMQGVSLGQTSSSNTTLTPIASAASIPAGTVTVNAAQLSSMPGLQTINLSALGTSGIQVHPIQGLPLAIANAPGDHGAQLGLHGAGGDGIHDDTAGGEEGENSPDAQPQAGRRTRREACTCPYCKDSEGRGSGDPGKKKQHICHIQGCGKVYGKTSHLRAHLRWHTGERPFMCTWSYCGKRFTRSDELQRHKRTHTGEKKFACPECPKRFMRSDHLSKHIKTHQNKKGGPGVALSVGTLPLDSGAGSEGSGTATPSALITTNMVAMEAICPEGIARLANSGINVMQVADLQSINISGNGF"}}, "data": [{"binder": "SP/KLF wild-type (dsDNA) DNA 1: GAGAGCCCCGCCCCCTGGCT DNA 2: AGCCAGGGGGCGGGGCTCTC", "values": [{"measurement": "IC50", "setting": "[1]", "value": 176, "unit": "nM"}, {"measurement": "IC50", "setting": "[2]", "value": 112, "unit": "nM"}, {"measurement": "IC50", "setting": "[3]", "value": 86.2, "unit": "nM"}, {"measurement": "IC50", "setting": "[4]", "value": 176, "unit": "nM"}, {"measurement": "IC50", "setting": "[5]", "value": 270, "unit": "nM"}, {"measurement": "IC50", "setting": "[6]", "value": 215, "unit": "nM"}, {"measurement": "IC50", "setting": "[7]", "value": 263, "unit": "nM"}, {"measurement": "IC50", "setting": "[8]", "value": 147, "unit": "nM"}, {"measurement": "IC50", "setting": "[9]", "value": 192, "unit": "nM"}]}]}
